Assay results taken from patent US20140011734A1 (Sanofi, published 2014).
Starred links: 1 amine or outer side, 2 acyl side, 3 side chain; linkers in the order of their positions; H or OH if unused. Non-standard residues stand in square brackets, D forms with d. Amp = L-2-amino-3-methoxypropionic acid, COC[C@H](N[*:1])C(=O)[*:2]; Amb = L-2-amino-4-methoxybutyric acid, COCC[C@H](N[*:1])C(=O)[*:2]; NHCH2(1,3-C6H4)CH2CO = O=C(Cc1cccc(CN[*:1])c1)[*:2]; Nle = CCCC[C@H](N)C(=O)O; Abu = CC[C@H](N)C(=O)O; Aoc = NCCCCCCCC(=O)O; Ahp = NCCCCCCC(=O)O; βAla = NCCC(=O)O

B1: Cyclo[Leu-His-Asn-Leu-NH-(CH2)6-CO-Val-Glu-Arg-Met-Ala] (peptide)
peptide: cyclo(LHNL[Ahp]VERMA)
SMILES: CSCC[C@@H]1NC(=O)[C@H](CCCNC(=N)N)NC(=O)[C@H](CCC(=O)O)NC(=O)[C@H](C(C)C)NC(=O)CCCCCCNC(=O)[C@H](CC(C)C)NC(=O)[C@H](CC(N)=O)NC(=O)[C@H](Cc2c[nH]cn2)NC(=O)[C@H](CC(C)C)NC(=O)[C@H](C)NC1=O
B2: Cyclo[Leu-His-Asn-Leu-NH-(CH2)2-CO-Gly-Thr-Glu-Arg-Met-Ala] (peptide)
peptide: cyclo(LHNL[βAla]GTERMA)
SMILES: CSCC[C@@H]1NC(=O)[C@H](CCCNC(=N)N)NC(=O)[C@H](CCC(=O)O)NC(=O)[C@H]([C@@H](C)O)NC(=O)CNC(=O)CCNC(=O)[C@H](CC(C)C)NC(=O)[C@H](CC(N)=O)NC(=O)[C@H](Cc2c[nH]cn2)NC(=O)[C@H](CC(C)C)NC(=O)[C@H](C)NC1=O
B3: Cyclo[Leu-His-Asn-Leu-NH-(CH2)6-CO-Thr-Glu-Arg-Met-Ala] (peptide)
peptide: cyclo(LHNL[Ahp]TERMA)
modifications: also: made as TFA salt and as acetate salt
notes: Made as trifluoroacetic acid salt and also as acetic acid salt
B4: Cyclo[Leu-His-Asn-Leu-NH-X4-X3-X2-X1-CO-Thr-Glu-Arg-Met-Ala] of example 2 (peptide)
peptide: cyclo(LHNL[NHCH2(1,3-C6H4)CH2CO]TERMA)
SMILES: CSCC[C@@H]1NC(=O)[C@H](CCCNC(=N)N)NC(=O)[C@H](CCC(=O)O)NC(=O)[C@H]([C@@H](C)O)NC(=O)Cc2cccc(c2)CNC(=O)[C@H](CC(C)C)NC(=O)[C@H](CC(N)=O)NC(=O)[C@H](Cc2c[nH]cn2)NC(=O)[C@H](CC(C)C)NC(=O)[C@H](C)NC1=O
B5: Cyclo[Leu-His-Asn-Leu-NH-(CH2)6-CO-Thr-Glu-Arg-Abu-Ala] (peptide)
peptide: cyclo(LHNL[Ahp]TER[Abu]A)
SMILES: CC[C@@H]1NC(=O)[C@H](CCCNC(=N)N)NC(=O)[C@H](CCC(=O)O)NC(=O)[C@H]([C@@H](C)O)NC(=O)CCCCCCNC(=O)[C@H](CC(C)C)NC(=O)[C@H](CC(N)=O)NC(=O)[C@H](Cc2c[nH]cn2)NC(=O)[C@H](CC(C)C)NC(=O)[C@H](C)NC1=O
B6: Cyclo[Leu-His-Asn-Leu-NH-(CH2)6-CO-Thr-Glu-Arg-Amb-Ala] (peptide)
peptide: cyclo(LHNL[Ahp]TER[Amb]A)
SMILES: COCC[C@@H]1NC(=O)[C@H](CCCNC(=N)N)NC(=O)[C@H](CCC(=O)O)NC(=O)[C@H]([C@@H](C)O)NC(=O)CCCCCCNC(=O)[C@H](CC(C)C)NC(=O)[C@H](CC(N)=O)NC(=O)[C@H](Cc2c[nH]cn2)NC(=O)[C@H](CC(C)C)NC(=O)[C@H](C)NC1=O
B7: Cyclo[Leu-His-Asn-Leu-NH-(CH2)6-CO-Thr-Glu-Arg-Amp-Ala] (peptide)
peptide: cyclo(LHNL[Ahp]TER[Amp]A)
SMILES: COC[C@@H]1NC(=O)[C@H](CCCNC(=N)N)NC(=O)[C@H](CCC(=O)O)NC(=O)[C@H]([C@@H](C)O)NC(=O)CCCCCCNC(=O)[C@H](CC(C)C)NC(=O)[C@H](CC(N)=O)NC(=O)[C@H](Cc2c[nH]cn2)NC(=O)[C@H](CC(C)C)NC(=O)[C@H](C)NC1=O
B8: Cyclo[Leu-His-Asn-Leu-NH-(CH2)7-CO-Thr-Glu-Arg-Met-Ala] (peptide)
peptide: cyclo(LHNL[Aoc]TERMA)
SMILES: CSCC[C@@H]1NC(=O)[C@H](CCCNC(=N)N)NC(=O)[C@H](CCC(=O)O)NC(=O)[C@H]([C@@H](C)O)NC(=O)CCCCCCCNC(=O)[C@H](CC(C)C)NC(=O)[C@H](CC(N)=O)NC(=O)[C@H](Cc2c[nH]cn2)NC(=O)[C@H](CC(C)C)NC(=O)[C@H](C)NC1=O
B9: Cyclo[Leu-His-Asn-Leu-NH-(CH2)6-CO-Thr-Glu-Arg-Nle-Ala] (peptide)
peptide: cyclo(LHNL[Ahp]TER[Nle]A)
SMILES: CCCC[C@@H]1NC(=O)[C@H](CCCNC(=N)N)NC(=O)[C@H](CCC(=O)O)NC(=O)[C@H]([C@@H](C)O)NC(=O)CCCCCCNC(=O)[C@H](CC(C)C)NC(=O)[C@H](CC(N)=O)NC(=O)[C@H](Cc2c[nH]cn2)NC(=O)[C@H](CC(C)C)NC(=O)[C@H](C)NC1=O

Molecular target: T1, blood platelet receptor glycoprotein Ib-IX-V complex (GPIb) (human, UniProt P07359 17-652; P13224 26-206; P14770 17-177; P40197 17-560)
T1 construct: whole, on cells; also called GPIb complex; GPIb receptor
Experiment: inhibition of static adhesion of human platelets to coated vWF-A1; grade A = showed activity at 10 µM
Protocol: Platelet rich plasma was carefully transferred again to fresh containers, PGE1 (0.5 μg/ml, Sigma) was added and the suspension was allowed to rest for 5 min. This was followed by another centrifugation step for 15 min at 360 g. The supernatant was discarded and the cell pellets were carefully resuspended in tyrode buffer (NaCl, 137 mM (Sigma S-3014); KCl, 2.7 mM (Sigma P-9541); NaHCO₃,12 mM (Riedel deHaen 31437); NaH₂PO₄×2H₂O, 0.36 mM (Merck 6345); MgCl₂×6 H₂O, 1 mM (Sigma M-2670); Hepes, 10 mM (Sigma H-1016); glucose, 5.6 mM (Merck 8342); BSA, 0.1% (Sigma A7906)), and PGE1 (0.25 μg/ml) was added. After 5 min of resting the suspension was spun down for 15 min at 300 g. The supernatant was discarded and the pellets were carefully resuspended in TBS buffer (Tris-HCl, 50 mM (Fluka 93371); NaCl, 120 mM (Sigma S-3014); KCl, 2.7 mM (Sigma P-9541); CaCl₂, 0.05 mM (Sigma C-3306); MgCl₂×6 H₂O, 2 mM (Sigma M-2670); BSA, 0.1% (Sigma A7906); pH 7.4). […]
96 well plates (Greiner hb, black, clear bottom, F, 655097) were coated with human recombinant vWF-A1 domain (1.5 μg/well, AA 475-706, expressed in E. coli) in Tris buffer (pH 7.4; Tris-HCl, 25 mM; NaCl, 150 mM) and incubated for 1 h at room temperature. […] Measurement of fluorescence per well was performed in a SpectraMax M5 reader (Molecular Devices). From the raw data % inhibition and IC₅₀ values were calculated.

T1 sequence (P07359 17-652, chain 1 of 4): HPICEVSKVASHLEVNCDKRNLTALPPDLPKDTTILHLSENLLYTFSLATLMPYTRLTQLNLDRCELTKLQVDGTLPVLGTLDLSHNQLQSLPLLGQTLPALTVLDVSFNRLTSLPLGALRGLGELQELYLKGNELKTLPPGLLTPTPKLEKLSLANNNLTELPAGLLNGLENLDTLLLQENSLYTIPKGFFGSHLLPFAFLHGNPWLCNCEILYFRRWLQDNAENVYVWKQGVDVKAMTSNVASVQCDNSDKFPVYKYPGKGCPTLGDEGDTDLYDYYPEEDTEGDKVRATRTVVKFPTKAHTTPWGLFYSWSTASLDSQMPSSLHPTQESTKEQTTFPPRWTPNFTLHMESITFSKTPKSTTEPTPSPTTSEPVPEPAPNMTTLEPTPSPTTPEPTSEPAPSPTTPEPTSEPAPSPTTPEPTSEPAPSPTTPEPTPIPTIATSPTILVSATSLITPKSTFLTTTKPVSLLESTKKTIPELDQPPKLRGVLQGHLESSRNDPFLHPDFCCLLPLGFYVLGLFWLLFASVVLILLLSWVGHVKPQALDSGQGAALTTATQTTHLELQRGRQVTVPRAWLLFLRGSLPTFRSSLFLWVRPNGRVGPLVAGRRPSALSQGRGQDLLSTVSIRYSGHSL
T1 sequence (P13224 26-206, chain 2 of 4): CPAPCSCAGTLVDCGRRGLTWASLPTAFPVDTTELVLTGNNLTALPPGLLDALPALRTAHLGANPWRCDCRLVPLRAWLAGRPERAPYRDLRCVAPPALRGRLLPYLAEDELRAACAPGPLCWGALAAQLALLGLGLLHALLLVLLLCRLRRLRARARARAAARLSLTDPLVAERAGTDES
T1 sequence (P14770 17-177, chain 3 of 4): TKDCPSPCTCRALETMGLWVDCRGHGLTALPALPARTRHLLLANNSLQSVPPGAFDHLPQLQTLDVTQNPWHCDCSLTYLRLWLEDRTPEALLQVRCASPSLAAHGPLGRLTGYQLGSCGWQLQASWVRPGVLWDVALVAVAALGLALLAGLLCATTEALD
T1 sequence (P40197 17-560, chain 4 of 4): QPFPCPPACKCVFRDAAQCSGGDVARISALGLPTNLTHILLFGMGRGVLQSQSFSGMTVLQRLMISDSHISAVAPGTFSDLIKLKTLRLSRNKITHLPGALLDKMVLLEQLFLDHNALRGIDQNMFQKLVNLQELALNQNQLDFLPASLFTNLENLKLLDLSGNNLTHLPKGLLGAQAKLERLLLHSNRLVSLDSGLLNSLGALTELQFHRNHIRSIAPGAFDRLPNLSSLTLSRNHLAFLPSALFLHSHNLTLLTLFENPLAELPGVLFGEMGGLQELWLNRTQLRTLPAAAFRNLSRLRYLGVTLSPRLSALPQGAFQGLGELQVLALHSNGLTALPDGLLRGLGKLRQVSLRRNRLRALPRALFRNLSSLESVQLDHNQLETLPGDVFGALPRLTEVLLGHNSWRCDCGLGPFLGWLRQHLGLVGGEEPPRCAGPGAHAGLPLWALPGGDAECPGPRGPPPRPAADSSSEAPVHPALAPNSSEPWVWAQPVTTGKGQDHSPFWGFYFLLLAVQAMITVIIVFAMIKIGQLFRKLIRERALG

| binding result | Binder |
| --- | --- |
| binds | B1 |
| binds | B2 |

Molecular target: T1, blood platelet receptor glycoprotein …
Experiment: cell-based or functional assay

| IC50 (average value), ristocetin-induced agglutination of human whole blood, impedance aggregometry [µM] | Binder |
| --- | --- |
| < 1 | B3 |
| < 1 | B4 |

Molecular target: T1, blood platelet receptor glycoprotein …
Experiment: inhibition of static adhesion of human platelets to coated vWF-A1; grade C = IC50 lower than 1 µM
Protocol: Platelet rich plasma was carefully transferred again to fresh containers, PGE1 (0.5 μg/ml, Sigma) was added and the suspension was allowed to rest for 5 min. This was followed by another centrifugation step for 15 min at 360 g. The supernatant was discarded and the cell pellets were carefully resuspended in tyrode buffer (NaCl, 137 mM (Sigma S-3014); KCl, 2.7 mM (Sigma P-9541); NaHCO₃,12 mM (Riedel deHaen 31437); NaH₂PO₄×2H₂O, 0.36 mM (Merck 6345); MgCl₂×6 H₂O, 1 mM (Sigma M-2670); Hepes, 10 mM (Sigma H-1016); glucose, 5.6 mM (Merck 8342); BSA, 0.1% (Sigma A7906)), and PGE1 (0.25 μg/ml) was added. After 5 min of resting the suspension was spun down for 15 min at 300 g. The supernatant was discarded and the pellets were carefully resuspended in TBS buffer (Tris-HCl, 50 mM (Fluka 93371); NaCl, 120 mM (Sigma S-3014); KCl, 2.7 mM (Sigma P-9541); CaCl₂, 0.05 mM (Sigma C-3306); MgCl₂×6 H₂O, 2 mM (Sigma M-2670); BSA, 0.1% (Sigma A7906); pH 7.4). The platelet count was adjusted to 2×10⁵ cells/μl, and the suspensions from individual donors were pooled at this stage. The platelets were allowed to rest for 30 min at room temperature before calcein AM (2.5 μM per 2×10⁵ cells/pi (Molecular Probes C-3099)) was added. This was followed by 15 min incubation in the dark. Cells were diluted to 5×10⁴ cells/μl and ReoPro (3 μg/ml (Centocor B. V., Leiden, N L)) was added, followed by a 10 min incubation period in the dark before adding the platelets to the assay plates.
96 well plates (Greiner hb, black, clear bottom, F, 655097) were coated with human recombinant vWF-A1 domain (1.5 μg/well, AA 475-706, expressed in E. coli) in Tris buffer (pH 7.4; Tris-HCl, 25 mM; NaCl, 150 mM) and incubated for 1 h at room temperature. After washing the wells 3× with TBS, blocking buffer (TBS with 5% BSA) was added followed by an incubation for 1 h. The wells were washed again 3× with TBS before 200 μl TBS were added to each well, preventing them from drying out. TBS was flicked out and serial dilutions of the test compound were added. The washed and calcein AM labeled thrombocytes were added to the wells (2.5×10⁶ cells/well). Following an adhesion period of 1.5 h in the dark the wells were washed 3× with TBS. Measurement of fluorescence per well was performed in a SpectraMax M5 reader (Molecular Devices). From the raw data % inhibition and IC₅₀ values were calculated.

| IC50 [µM] | Binder |
| --- | --- |
| < 1 | B5 |
| < 1 | B6 |
| < 1 | B7 |
| < 1 | B3 |
| < 1 | B8 |
| < 1 | B9 |
| < 1 | B4 |
